Measured values published in PMC11295148.

Legend:
Experiment in all cases: purified protein
[1] = substrate: O=C(O)c1cc(/N=N/c2ccc(S(=O)(=O)Nc3ccccn3)cc2)ccc1O; details: 40 μM NADH, 50 mM MOPS pH 7.2, 22 °C
[2] = substrate: CCN(CC)c1ccc(N=Nc2ccccc2C(=O)O)cc1; format: biochemical, Anaerotignum lactatifermentans; details: 400 μM NADH, 50 mM MOPS pH 7.2, 22 °C
[3] = substrate: CN(C)c1ccc(N=Nc2ccccc2C(=O)O)cc1; format: biochemical, Anaerotignum lactatifermentans; details: 400 μM NADH, 50 mM MOPS pH 7.2, 22 °C
[4] = substrate: Nc1ccc(N=Nc2ccccc2)c(N)n1; format: biochemical, Anaerotignum lactatifermentans; details: 400 μM NADH, 50 mM MOPS pH 7.2, 22 °C

B1: AlAzoR (Anaerotignum lactatifermentans DSM 14214) (protein)
chain: MKKVLFVNCCIRREGSRTQKLADHFLEGLRKKEGYEIEELCLMDESLSYFTDGFFEQRERLLADKQFDHPRFRYAHQFAEADKIVIAAPFWDLSFPALLKVYIENLCVEGITFGCNETGCFGTCKADQLIYLTTRGGFYNDNPMEMGSRYIWAMCDFFGIPRYDCVAGDGLDTGVRPVEEILEDAKAEIDRLLAEF
Protein B1 has a Km [1] of 8 ± 1 µM, a kcat [1] of 0.05 s⁻¹ and a kcat/Km [1] of 6100 M⁻¹ s⁻¹. For the same protein, the Km [2] was 30. ± 2 μM, the kcat [2] was 0.78 ± 0.02 s⁻¹ and the kcat/Km [2] was 26000 ± 2000 M⁻¹ s⁻¹. For the same protein, the Km [3] was 17 ± 3 µM, the kcat [3] was 0.49 ± 0.03 s⁻¹ and the kcat/Km [3] was 28000 ± 4000 M⁻¹ s⁻¹. For the same protein, the Km [4] was 23 ± 3 µM, the kcat [4] was 0.138 ± 0.008 s⁻¹ and the kcat/Km [4] was 6000 ± 700 M⁻¹ s⁻¹.
